Assays:
[1] = target: T1, recombinant human sclerostin (human, UniProt Q9BQB4 24-213); assay: SPR
T1 construct: biotinylated in the ELISAs; also called hu sclerostin; hu scl
T1 sequence: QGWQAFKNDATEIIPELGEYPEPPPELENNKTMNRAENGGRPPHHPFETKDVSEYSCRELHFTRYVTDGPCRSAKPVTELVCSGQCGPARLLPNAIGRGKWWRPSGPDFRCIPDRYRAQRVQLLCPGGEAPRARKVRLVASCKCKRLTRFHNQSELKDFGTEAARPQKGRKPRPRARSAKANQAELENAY
Procedure: (§1) The binding of antibodies or anti-sclerostin-TNF DVD to purified recombinant human, cynomolgus monkey (cyno), rat and mouse sclerostin and TNFα was determined by surface plasmon resonance-based measurements with a Biacore T100 or T200 instruments (GE Healthcare Life Sciences, Piscataway, N.J., USA) using running HBS-EP+ (10 mM HEPES [pH 7.4], 150 mM NaCl, 3 mM EDTA, and 0.005% surfactant P20) containing additional 150 mM NaCl, and/or 10 mg/ml carboxymethyl dextran, 0.1 mg/ml BSA at 25° C. All chemicals were obtained from GE Healthcare Life Sciences, Piscataway, N.J., USA or otherwise from a different source as described in the text. Approximately 10,000 RU (or 3000 RU when CM3 chip was used) of goat anti-mouse or anti-human IgG (Fcγ) fragment specific polyclonal antibody (Pierce Biotechnology Inc, Rockford, Ill.) diluted in 10 mM sodium acetate (pH 4.5) was directly immobilized across a CM5 (or CM3) research grade biosensor chip using a standard amine coupling kit according to manufacturer's instructions and procedures at 15 μg/ml. Unreacted moieties on the biosensor surface were blocked with ethanolamine. Modified carboxymethyl dextran surface in flowcells 2, 3 and 4 were used as a reaction surface. Modified carboxymethyl dextran in flow cell 1 was used as the reference surface. Biaevaluation T100 software version 2.0.2, GE Healthcare Life Sciences was used to simultaneously fit association and dissociation phases of all injections (using 1:1 fit analysis with local Rmax). Purified antibodies were diluted in running buffer for capture across goat anti-mouse or anti-human IgG specific reaction surfaces. Antibodies to be captured as a ligand (1 μg/ml) were injected over reaction matrices at a flow rate of 10 μl/minute. The association and dissociation rate constants, kon (unit M-1 s-1) and koff (unit s-1) were determined under a continuous flow rate of 50 μl/minute. […] At the end of each cycle the surfaces were regenerated with 10 s injection of 50 mM NaOH or/and by 10 s injection of 10 mM Glycine pH1.5 at a flow rate of 100 μl/min.

[2] = target: T2, recombinant cynomolgus monkey sclerostin (cynomolgus monkey); assay: SPR
T2 construct: also called cyno sclerostin; Cyno sclerostin
Procedure: as §1

B1: DVD2657 (bispecific antibody, human IgG1, kappa, L234A L235A)
heavy: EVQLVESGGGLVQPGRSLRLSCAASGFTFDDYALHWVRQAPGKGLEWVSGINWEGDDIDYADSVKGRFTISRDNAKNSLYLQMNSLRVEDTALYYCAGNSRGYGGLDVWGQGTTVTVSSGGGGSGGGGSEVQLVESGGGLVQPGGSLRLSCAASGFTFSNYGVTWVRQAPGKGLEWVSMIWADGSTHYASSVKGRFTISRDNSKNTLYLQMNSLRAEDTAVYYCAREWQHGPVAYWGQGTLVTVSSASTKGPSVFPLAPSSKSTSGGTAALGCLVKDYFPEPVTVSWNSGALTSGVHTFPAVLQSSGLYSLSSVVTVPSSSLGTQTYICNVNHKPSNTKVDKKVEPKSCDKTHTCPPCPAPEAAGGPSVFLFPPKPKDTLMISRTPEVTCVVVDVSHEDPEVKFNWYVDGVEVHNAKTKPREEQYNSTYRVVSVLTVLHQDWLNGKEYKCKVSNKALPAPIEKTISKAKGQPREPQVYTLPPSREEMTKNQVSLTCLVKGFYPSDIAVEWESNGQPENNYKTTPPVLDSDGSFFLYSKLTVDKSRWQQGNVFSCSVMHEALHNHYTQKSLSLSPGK
light: QSVLTQPPSASGTPGQRVTISCSGSSSNIGRNTVNWYQQLPGTAPKLLIYSNNQRPSGVPDRFSGSKSGTSASLAISGLQSEDEADYYCAAWDDNLESYVFGGGTKLTVLGGGSGGGGSGDIQMTQSPSSLSASVGDRVTITCRASQLVSSAVAWYQQKPGKAPKLLIYWASARHTGVPSRFSGSGSGTDFTLTISSLQPEDFATYYCQQHYKTPFTFGQGTKLEIKRTVAAPSVFIFPPSDEQLKSGTASVVCLLNNFYPREAKVQWKVDNALQSGNSQESVTEQDSKDSTYSLSSTLTLSKADYEKHKVYACEVTHQGLSSPVTKSFNRGEC
notes: DVD-Ig: outer MSL10-AM1.2, inner AB436
- Kd [1]: 0.017 nM
- koff [1]: 4.9e-06 s⁻¹
- kon [1]: 280000 M⁻¹ s⁻¹
- Kd [2]: 0.13 nM
- koff [2]: 5e-05 s⁻¹
- kon [2]: 390000 M⁻¹ s⁻¹

B2: MAK195-21-SS-AE10-6 AM7 (bispecific antibody, human IgG1, lambda, L234A L235A)
heavy: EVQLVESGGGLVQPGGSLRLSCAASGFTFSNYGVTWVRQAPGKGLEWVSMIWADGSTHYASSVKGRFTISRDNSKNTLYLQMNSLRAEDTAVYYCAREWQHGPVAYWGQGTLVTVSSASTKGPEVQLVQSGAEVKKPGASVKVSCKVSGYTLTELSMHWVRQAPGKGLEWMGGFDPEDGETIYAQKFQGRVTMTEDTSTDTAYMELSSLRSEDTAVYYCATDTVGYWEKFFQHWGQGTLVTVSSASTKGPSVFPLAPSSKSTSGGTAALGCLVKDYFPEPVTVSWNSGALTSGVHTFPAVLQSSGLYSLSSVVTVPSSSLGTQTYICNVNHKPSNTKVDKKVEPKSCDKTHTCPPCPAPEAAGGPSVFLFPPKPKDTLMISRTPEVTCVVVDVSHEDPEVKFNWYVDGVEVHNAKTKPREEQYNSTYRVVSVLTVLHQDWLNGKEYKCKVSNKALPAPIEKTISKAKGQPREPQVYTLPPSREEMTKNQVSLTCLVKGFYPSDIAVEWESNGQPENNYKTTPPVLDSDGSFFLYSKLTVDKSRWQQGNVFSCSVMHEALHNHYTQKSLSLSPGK
light: DIQMTQSPSSLSASVGDRVTITCRASQLVSSAVAWYQQKPGKAPKLLIYWASARHTGVPSRFSGSGSGTDFTLTISSLQPEDFATYYCQQHYKTPFTFGQGTKLEIKRTVAAPQAVVTQEPSLTVSPGGTVTLTCGSSTGTVTIDHYPYWFQQKPGQAPRTLISDTDDKHSWTPARFSGSLLGGKAALTLSGAQPEDEAEYYCLLDYGGRFVFGGGTKLTVLGQPKAAPSVTLFPPSSEELQANKATLVCLISDFYPGAVTVAWKADSSPVKAGVETTTPSKQSNNKYAASSYLSLTPEQWKSHRSYSCQVTHEGSTVEKTVAPTECS
notes: DVD-Ig: outer MAK195-21, inner AE10-6 AM7
- Kd [1]: < 0.0015 nM
- koff [1]: < 1e-06 s⁻¹
- kon [1]: 680000 M⁻¹ s⁻¹

B3: MAK195-21-GS-AE10-6 AM3 (bispecific antibody, human IgG1, lambda, L234A L235A)
heavy: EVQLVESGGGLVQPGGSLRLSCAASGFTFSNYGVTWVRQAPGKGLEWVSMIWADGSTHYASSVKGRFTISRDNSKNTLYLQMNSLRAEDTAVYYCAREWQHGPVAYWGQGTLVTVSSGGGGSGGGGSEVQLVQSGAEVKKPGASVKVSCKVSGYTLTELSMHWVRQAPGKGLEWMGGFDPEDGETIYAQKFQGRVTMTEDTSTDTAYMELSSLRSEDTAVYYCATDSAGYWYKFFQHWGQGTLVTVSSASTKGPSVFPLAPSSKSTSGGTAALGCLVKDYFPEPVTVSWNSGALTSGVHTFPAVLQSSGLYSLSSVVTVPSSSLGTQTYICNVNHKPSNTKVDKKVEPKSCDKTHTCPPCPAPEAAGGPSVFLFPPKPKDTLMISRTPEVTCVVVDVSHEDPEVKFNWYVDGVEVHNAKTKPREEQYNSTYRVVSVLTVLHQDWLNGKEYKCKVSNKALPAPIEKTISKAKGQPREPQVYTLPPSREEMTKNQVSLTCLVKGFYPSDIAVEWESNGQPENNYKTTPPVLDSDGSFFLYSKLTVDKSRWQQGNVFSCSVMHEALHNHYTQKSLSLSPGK
light: DIQMTQSPSSLSASVGDRVTITCRASQLVSSAVAWYQQKPGKAPKLLIYWASARHTGVPSRFSGSGSGTDFTLTISSLQPEDFATYYCQQHYKTPFTFGQGTKLEIKGGSGGGGSGQAVVTQEPSLTVSPGGTVTLTCGSSTGAVTIDHYPYWFQQKPGQAPRTLISDTDDKHSWTPARFSGSLLGGKAALTLSGAQPEDEAEYYCLLDYGGTFVFGGGTKLTVLGQPKAAPSVTLFPPSSEELQANKATLVCLISDFYPGAVTVAWKADSSPVKAGVETTTPSKQSNNKYAASSYLSLTPEQWKSHRSYSCQVTHEGSTVEKTVAPTECS
notes: DVD-Ig: outer MAK195-21, inner AE10-6 AM3; heavy chain row is printed MAK195-1-GS-AE10-6 AM3; also called MAK195-1-GS-AE10-6 AM3
- Kd [1]: 0.0082 nM
- koff [1]: 1.7e-05 s⁻¹
- kon [1]: 2.1e+06 M⁻¹ s⁻¹

B4: MAK195-21-GS-AE10-6 AM7 (bispecific antibody, human IgG1, lambda, L234A L235A)
heavy: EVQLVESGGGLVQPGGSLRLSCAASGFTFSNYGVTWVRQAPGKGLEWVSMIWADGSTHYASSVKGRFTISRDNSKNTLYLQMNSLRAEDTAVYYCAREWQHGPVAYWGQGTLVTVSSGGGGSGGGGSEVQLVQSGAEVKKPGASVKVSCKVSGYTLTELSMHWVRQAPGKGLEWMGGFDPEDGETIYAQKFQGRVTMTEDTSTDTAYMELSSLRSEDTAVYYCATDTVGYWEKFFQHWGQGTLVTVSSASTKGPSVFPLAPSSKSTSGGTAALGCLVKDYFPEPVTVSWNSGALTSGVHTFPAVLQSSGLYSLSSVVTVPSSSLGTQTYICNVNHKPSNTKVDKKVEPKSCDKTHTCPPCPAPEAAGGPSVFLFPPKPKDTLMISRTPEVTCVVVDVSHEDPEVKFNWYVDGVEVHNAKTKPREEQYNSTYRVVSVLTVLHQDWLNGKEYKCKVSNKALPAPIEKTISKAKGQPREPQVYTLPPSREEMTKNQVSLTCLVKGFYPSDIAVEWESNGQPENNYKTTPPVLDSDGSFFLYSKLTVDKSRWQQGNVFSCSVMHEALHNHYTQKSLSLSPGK
light: DIQMTQSPSSLSASVGDRVTITCRASQLVSSAVAWYQQKPGKAPKLLIYWASARHTGVPSRFSGSGSGTDFTLTISSLQPEDFATYYCQQHYKTPFTFGQGTKLEIKGGSGGGGSGQAVVTQEPSLTVSPGGTVTLTCGSSTGTVTIDHYPYWFQQKPGQAPRTLISDTDDKHSWTPARFSGSLLGGKAALTLSGAQPEDEAEYYCLLDYGGRFVFGGGTKLTVLGQPKAAPSVTLFPPSSEELQANKATLVCLISDFYPGAVTVAWKADSSPVKAGVETTTPSKQSNNKYAASSYLSLTPEQWKSHRSYSCQVTHEGSTVEKTVAPTECS
notes: as for B2
- Kd [1]: 0.01 nM
- koff [1]: 2e-05 s⁻¹
- kon [1]: 2e+06 M⁻¹ s⁻¹

B5: MAK195-21-GS-AE10-6 AM8 (bispecific antibody, human IgG1, lambda, L234A L235A)
heavy: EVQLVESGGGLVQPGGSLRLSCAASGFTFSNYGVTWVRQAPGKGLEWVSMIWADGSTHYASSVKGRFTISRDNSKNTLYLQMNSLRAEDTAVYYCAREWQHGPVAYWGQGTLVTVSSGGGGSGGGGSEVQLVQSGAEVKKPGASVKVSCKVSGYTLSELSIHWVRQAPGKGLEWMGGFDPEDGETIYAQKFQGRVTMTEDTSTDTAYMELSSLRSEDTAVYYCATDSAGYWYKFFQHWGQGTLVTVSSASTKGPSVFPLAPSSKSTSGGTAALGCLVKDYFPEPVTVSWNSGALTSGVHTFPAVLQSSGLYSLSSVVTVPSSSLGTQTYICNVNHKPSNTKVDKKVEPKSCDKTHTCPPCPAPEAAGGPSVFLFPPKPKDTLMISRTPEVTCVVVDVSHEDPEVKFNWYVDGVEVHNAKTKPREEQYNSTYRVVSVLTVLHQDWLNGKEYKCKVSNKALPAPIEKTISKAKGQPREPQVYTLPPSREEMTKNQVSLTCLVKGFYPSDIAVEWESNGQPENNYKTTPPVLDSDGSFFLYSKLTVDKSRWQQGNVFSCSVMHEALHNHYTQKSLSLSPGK
light: DIQMTQSPSSLSASVGDRVTITCRASQLVSSAVAWYQQKPGKAPKLLIYWASARHTGVPSRFSGSGSGTDFTLTISSLQPEDFATYYCQQHYKTPFTFGQGTKLEIKGGSGGGGSGQAVVTQEPSLTVSPGGTVTLTCGSSTGAVTIDHYPYWFQQKPGQAPRTLISDTDDKHSWTPARFSGSLLGGKAALTLSGAQPEDEAEYYCLLDYGGSFVFGGGTKLTVLGQPKAAPSVTLFPPSSEELQANKATLVCLISDFYPGAVTVAWKADSSPVKAGVETTTPSKQSNNKYAASSYLSLTPEQWKSHRSYSCQVTHEGSTVEKTVAPTECS
notes: DVD-Ig: outer MAK195-21, inner AE10-6 AM8
- Kd [1]: 0.0036 nM
- koff [1]: 7.9e-06 s⁻¹
- kon [1]: 2.2e+06 M⁻¹ s⁻¹

B6: DVD2658 (bispecific antibody, human IgG1, kappa, L234A L235A)
heavy: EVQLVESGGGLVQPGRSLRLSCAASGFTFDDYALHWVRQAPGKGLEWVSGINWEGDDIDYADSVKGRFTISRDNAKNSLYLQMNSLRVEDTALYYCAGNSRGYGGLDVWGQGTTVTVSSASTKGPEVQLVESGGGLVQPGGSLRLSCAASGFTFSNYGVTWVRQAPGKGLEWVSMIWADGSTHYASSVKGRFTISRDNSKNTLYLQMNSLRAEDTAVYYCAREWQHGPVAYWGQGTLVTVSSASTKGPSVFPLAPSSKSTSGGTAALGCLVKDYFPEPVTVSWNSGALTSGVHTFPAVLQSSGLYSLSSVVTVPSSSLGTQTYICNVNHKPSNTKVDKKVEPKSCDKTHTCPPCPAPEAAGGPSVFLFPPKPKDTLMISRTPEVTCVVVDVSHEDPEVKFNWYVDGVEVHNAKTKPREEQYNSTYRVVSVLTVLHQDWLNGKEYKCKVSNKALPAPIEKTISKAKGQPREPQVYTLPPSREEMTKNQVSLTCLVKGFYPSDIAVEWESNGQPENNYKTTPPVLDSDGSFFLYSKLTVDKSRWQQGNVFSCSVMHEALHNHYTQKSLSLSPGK
light: QSVLTQPPSASGTPGQRVTISCSGSSSNIGRNTVNWYQQLPGTAPKLLIYSNNQRPSGVPDRFSGSKSGTSASLAISGLQSEDEADYYCAAWDDNLESYVFGGGTKLTVLGQPKAAPDIQMTQSPSSLSASVGDRVTITCRASQLVSSAVAWYQQKPGKAPKLLIYWASARHTGVPSRFSGSGSGTDFTLTISSLQPEDFATYYCQQHYKTPFTFGQGTKLEIKRTVAAPSVFIFPPSDEQLKSGTASVVCLLNNFYPREAKVQWKVDNALQSGNSQESVTEQDSKDSTYSLSSTLTLSKADYEKHKVYACEVTHQGLSSPVTKSFNRGEC
notes: as for B1
- Kd [1]: < 0.0037 nM
- koff [1]: < 1e-06 s⁻¹
- kon [1]: 270000 M⁻¹ s⁻¹
- Kd [2]: 0.061 nM
- koff [2]: 3e-05 s⁻¹
- kon [2]: 500000 M⁻¹ s⁻¹
